Laboratory results: patent US20200095636A1, “ANTIDOTE-MEDIATED REVERSAL OF EXTRACELLULAR APTAMER STAINING” (Duke University, published 2020)

What was measured:
[1] = target: epidermal growth factor receptor (EGFR) on A431 epidermoid carcinoma cells (human) (UniProt P00533); test: flow cytometry of stained A431 cells immediately before and after FACS
[2] = target: EGFR (epidermal growth factor receptor) (Homo sapiens, UniProt P00533 P00533:25-1210); test: flow; apparent; A431 cells, on ice 30 min, media + 1% BSA + salmon sperm DNA; binding blocked or reversed at 37 C by antidotes A9 and mA9 but not scrambled sA9; conditions: tags: endogenous on A431 epidermoid carcinoma cells (ATCC); label: 5' AF488
Method: All aptamers were folded in PBS+/+ by denaturation at 65° C. for 5 min followed by passive cooling to ambient temperature for 3 min. In general, 500 nM aptamer solutions were used for staining, but this concentration varied as noted in some assays. For aptamer-SA staining solutions, 2:1 aptamer conjugates were prepared with 1 μM aptamer and 500 nM AF488-SA or AF647-SA. All staining solutions were prepared in Media+ and contained 1 mg/mL salmon sperm DNA to mitigate non-specific binding. All antibodies were used as 1:50 dilutions in Media+ with 1 mg/mL salmon sperm DNA. Both FITC-conjugated ICR10 (Abcam) and PE-conjugated D1D4J (Cell Signaling Technologies) monoclonal EGFR antibodies were used for staining.
A431 cells were stained with various concentrations (25, 50, 125, 250 or 500 nM) of E07 only or E07-SA conjugate mixtures prepared by reacting 1:1, 2:1 or 3:1 biotinylated E07 with tetrameric streptavidin. Stained cells were washed, analyzed by flow cytometry and their fluorescence corresponding to the amount of bound E07 or E07-SA was plotted to determine apparent binding affinities (dissociation constants; KD) and cell surface saturation (total number of receptors; Bmax). Conjugate mixtures prepared from higher E07: SA ratios had higher apparent affinities, but lower apparent saturation.

Row | losses during sorting (percent of stain fluorescence lost) [1] | Molecule | Kd [2]
1 | 11% | FITC-conjugated ICR10 (Abcam) monoclonal EGFR antibody | –
2 | 11% | PE-conjugated D1D4J (Cell Signaling Technologies) monoclonal EGFR antibody | –
3 | – | GGACGGAUUUAAUCGCCGUAGAAAGCAUGUCAAAGCCGGAACCGUCC (ssRNA, 2'-F C/U, 2'-OH purines, 3' idT) [E07] | 62.7 nM
